Laboratory results: patent US8129336B1, “Inhibitor of the uracil-DNA glycosylase enzyme and uses thereof” (Consejo Superior de Investigaciones Cientificas, priority 2005, dated 2012)
“Also recorded” adds a separate entry of the source.

B1: UGI: UGI protein encoded by the PBS2 bacteriophage, known inhibitor of UDG (protein, UniProt P14739 1-84, looked up)
Uracil-DNA glycosylase …: MTNLSDIIEKETGKQLVIQESILMLPEEVEEVIGNKPESDILVHTAYDESTDENVMLLTSDAPEYKPWALVIQDSNGENKIKML
B2: p56FLAG: p56 protein that contains amino acid sequence DYKDDDDK (FLAG peptide) fused to the C-terminal end (protein)
chain: MVQNDFVDSYDVTMLLQDDDGKQYYEYHKGLSLSDFEVLYGNTADEIIKLRLDKVLDYKDDDDK

Tests used:
[1] = molecular target: human UNG2 enzyme (Homo sapiens, UniProt P13051); conditions: cited from earlier work
Sequence of human UNG2 enzyme (P13051 whole entry): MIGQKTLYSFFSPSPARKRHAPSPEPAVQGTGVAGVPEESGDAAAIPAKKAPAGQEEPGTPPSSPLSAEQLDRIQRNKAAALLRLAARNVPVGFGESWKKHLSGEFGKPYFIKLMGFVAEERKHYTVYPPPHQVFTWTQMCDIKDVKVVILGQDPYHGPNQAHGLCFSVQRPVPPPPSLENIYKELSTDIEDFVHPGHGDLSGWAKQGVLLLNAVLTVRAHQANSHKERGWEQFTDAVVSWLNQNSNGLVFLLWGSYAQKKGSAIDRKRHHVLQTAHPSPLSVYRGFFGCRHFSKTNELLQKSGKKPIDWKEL

[2] = molecular target: T1, UDG of B. subtilis (Bacillus subtilis, UniProt P39615); test: Affinity chromatography on anti-FLAG M2 column, co-elution with p56FLAG; assay type: binding; conditions: extract of B. subtilis 110NA[pPR53.p56FLAG]; elution with FLAG peptide; peptide mass fingerprinting
T1 construct: endogenous in cells; host or cells: B. subtilis 110NA [pPR53.p56FLAG] lysate; UDG is the cell's own protein; only p56FLAG is plasmid-encoded
T1 sequence (P39615 whole entry, looked up): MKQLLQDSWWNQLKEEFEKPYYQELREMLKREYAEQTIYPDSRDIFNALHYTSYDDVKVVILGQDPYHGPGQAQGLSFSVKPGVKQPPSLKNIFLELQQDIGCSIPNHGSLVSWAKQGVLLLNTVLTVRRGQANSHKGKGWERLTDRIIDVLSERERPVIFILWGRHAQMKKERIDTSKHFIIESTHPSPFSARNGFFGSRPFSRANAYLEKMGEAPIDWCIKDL
Procedure: In order to analyse whether the UDG enzyme is a cellular target of protein p56, affinity chromatography assays were performed. Briefly, the B. subtilis 110NA [pPR53.p56FLAG] strain was grown in LB medium with phleomycin (0.8 μg/ml) at 30° C. to an OD560 equivalent to 10^8 viable cells per ml. The culture was concentrated 10-fold in TBS buffer (50 mM Tris-HCl, pH 7.5, 150 mM NaCl) and was lysed using the French press (20,000 psi). The lysate was centrifuged at 7,000 rpm and 4° C. in the Sorvall-SS.34 rotor for 10 minutes. The supernatant was loaded in an anti-FLAG M2 column (Sigma). The proteins bound to the column were eluted with the TBS buffer containing the FLAG peptide (500 μg/ml) (Sigma). The eluted proteins were precipitated with acetone, re-suspended in the loading buffer (60 mM Tris-HCl, pH 6.8, 2% SDS, 5% β-mercaptoethanol, 30% glycerol) and separated by electrophoresis in polyacrylamide/Tricine/SDS gels (Schagger and von Jagow (1987) Anal. Biochem. 166: 368-379). The gel was stained with SyproRuby (Molecular Probes). As a negative control, an extract from the 110NA[pPR53] strain was used. In a second experiment, protein p56 (2 μg) was incubated with the UDG enzyme of E. coli (0.2 μg, New England Biolabs). After 15 minutes at ambient temperature, the reaction was analysed by electrophoresis in native polyacrylamide gels (16%). The gel was stained with SpyroRuby.

Molecule | blocking of UDG activity of human UNG2 [1] | interaction / co-elution with UDG enzyme [2]
B1 | blocks the UDG activity of the human UNG2 enzyme | 
B2 |  | protein D was identified to be the UDG enzyme; also recorded: interacts with the UDG enzyme
